Laboratory results from patent publication US20200024322A1 (Eli Lilly, published 2020).
Numbered stars: 1 amine (or outer) side, 2 acyl side, 3 side chain; on linkers, the order of the positions; unused ones are H or OH. Square brackets hold non-standard residues; d marks the D form. Side chains are listed from the residue outwards. Ends that are not written are not given here. * marks the point of attachment. C20 diacid = O=C(O)CCCCCCCCCCCCCCCCCCC(=O)*; γGlu = O=C(O)[C@H](CCC(=O)[*:2])N[*:1]; αMeL = CC(C)C[C@](C)(N)C(=O)O; αMeK = C[C@](N)(CCCCN)C(=O)O; Dab = NCC[C@H](N)C(=O)O; AEEA = NCCOCCOCC(=O)O; Aib = CC(C)(N)C(=O)O

Experiments:
human GLP-1 receptor = target: T1, human GLP-1 receptor (human, UniProt P43220 24-463); assay: SPA, [125I]-GLP-1 displacement, hGLP-1R membranes
T1 construct: whole, on cells; Used as crude membranes of stably transfected HEK293 cells; also called hGLP1R; hGLP-1R

human glucagon receptor = target: T2, human glucagon receptor (human, UniProt P47871 26-477); assay: SPA, [125I]-Gcg displacement, hGcgR membranes
T2 construct: whole, on cells; Used as crude membranes of stably transfected HEK293 cells; also called hGcgR; hGLcgR

human GIP receptor = target: T3, human GIP receptor (human, UniProt P48546 22-466); assay: SPA, [125I]-GIP displacement, hGIPR membranes
T3 construct: whole, on cells; Used as crude membranes of stably transfected CHO cells; also called hGIPR
T3 sequence (looked up): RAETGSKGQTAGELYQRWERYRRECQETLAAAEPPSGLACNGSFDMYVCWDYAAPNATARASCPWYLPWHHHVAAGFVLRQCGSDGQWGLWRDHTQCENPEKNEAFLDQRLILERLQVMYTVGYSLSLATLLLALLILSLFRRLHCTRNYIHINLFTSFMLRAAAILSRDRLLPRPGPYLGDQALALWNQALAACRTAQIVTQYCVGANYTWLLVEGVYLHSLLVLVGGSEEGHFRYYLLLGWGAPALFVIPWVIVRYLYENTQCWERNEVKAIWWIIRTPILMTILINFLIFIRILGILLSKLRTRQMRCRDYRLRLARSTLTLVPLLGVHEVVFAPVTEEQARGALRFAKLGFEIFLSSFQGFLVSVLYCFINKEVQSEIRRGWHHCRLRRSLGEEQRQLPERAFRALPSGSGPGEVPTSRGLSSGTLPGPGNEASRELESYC

T2 sequence (P47871 26-477): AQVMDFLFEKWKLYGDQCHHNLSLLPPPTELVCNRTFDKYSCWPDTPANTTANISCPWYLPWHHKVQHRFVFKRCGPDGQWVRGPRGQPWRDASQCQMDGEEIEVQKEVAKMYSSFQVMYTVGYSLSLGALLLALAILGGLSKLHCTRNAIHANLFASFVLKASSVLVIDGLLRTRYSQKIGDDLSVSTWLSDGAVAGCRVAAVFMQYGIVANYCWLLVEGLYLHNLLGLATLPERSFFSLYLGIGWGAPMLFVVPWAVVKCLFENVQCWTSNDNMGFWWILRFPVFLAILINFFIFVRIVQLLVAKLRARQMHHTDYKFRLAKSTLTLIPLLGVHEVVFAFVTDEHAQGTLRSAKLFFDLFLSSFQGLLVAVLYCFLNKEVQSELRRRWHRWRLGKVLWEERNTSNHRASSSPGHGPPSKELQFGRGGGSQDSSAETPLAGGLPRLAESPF

B1: Example 15 (peptide)
peptide: H[Aib]EGTFTSDYSILLDKK([AEEA-AEEA-γGlu-C20 diacid])AQ[Aib]AFIEYLLE[Aib]GPSSGAPPPS-NH2
modifications: N-terminus assumed
SMILES: CC[C@H](C)[C@H](NC(=O)[C@H](Cc1ccccc1)NC(=O)[C@H](C)NC(=O)C(C)(C)NC(=O)[C@H](CCC(N)=O)NC(=O)[C@H](C)NC(=O)[C@H](CCCCNC(=O)COCCOCCNC(=O)COCCOCCNC(=O)CC[C@H](NC(=O)CCCCCCCCCCCCCCCCCCC(=O)O)C(=O)O)NC(=O)[C@H](CCCCN)NC(=O)[C@H](CC(=O)O)NC(=O)[C@H](CC(C)C)NC(=O)[C@H](CC(C)C)NC(=O)[C@@H](NC(=O)[C@H](CO)NC(=O)[C@H](Cc1ccc(O)cc1)NC(=O)[C@H](CC(=O)O)NC(=O)[C@H](CO)NC(=O)[C@@H](NC(=O)[C@H](Cc1ccccc1)NC(=O)[C@@H](NC(=O)CNC(=O)[C@H](CCC(=O)O)NC(=O)C(C)(C)NC(=O)[C@@H](N)Cc1c[nH]cn1)[C@@H](C)O)[C@@H](C)O)[C@@H](C)CC)C(=O)N[C@@H](CCC(=O)O)C(=O)N[C@@H](Cc1ccc(O)cc1)C(=O)N[C@@H](CC(C)C)C(=O)N[C@@H](CC(C)C)C(=O)N[C@@H](CCC(=O)O)C(=O)NC(C)(C)C(=O)NCC(=O)N1CCC[C@H]1C(=O)N[C@@H](CO)C(=O)N[C@@H](CO)C(=O)NCC(=O)N[C@@H](C)C(=O)N1CCC[C@H]1C(=O)N1CCC[C@H]1C(=O)N1CCC[C@H]1C(=O)N[C@@H](CO)C(N)=O
Human GLP-1 receptor
  Ki: 2.19 nM
Human glucagon receptor
  Ki: 130 nM
Human GIP receptor
  Ki: 0.284 nM

B2: Example 16 (peptide)
peptide: H[Aib]EGTFTSDYSILLDKK([AEEA-AEEA-γGlu-C20 diacid])AQ[Aib]AFIEYLIE[Aib]GPSSGAPPPS-NH2
modifications: N-terminus assumed
SMILES: CC[C@H](C)[C@H](NC(=O)[C@H](Cc1ccccc1)NC(=O)[C@H](C)NC(=O)C(C)(C)NC(=O)[C@H](CCC(N)=O)NC(=O)[C@H](C)NC(=O)[C@H](CCCCNC(=O)COCCOCCNC(=O)COCCOCCNC(=O)CC[C@H](NC(=O)CCCCCCCCCCCCCCCCCCC(=O)O)C(=O)O)NC(=O)[C@H](CCCCN)NC(=O)[C@H](CC(=O)O)NC(=O)[C@H](CC(C)C)NC(=O)[C@H](CC(C)C)NC(=O)[C@@H](NC(=O)[C@H](CO)NC(=O)[C@H](Cc1ccc(O)cc1)NC(=O)[C@H](CC(=O)O)NC(=O)[C@H](CO)NC(=O)[C@@H](NC(=O)[C@H](Cc1ccccc1)NC(=O)[C@@H](NC(=O)CNC(=O)[C@H](CCC(=O)O)NC(=O)C(C)(C)NC(=O)[C@@H](N)Cc1c[nH]cn1)[C@@H](C)O)[C@@H](C)O)[C@@H](C)CC)C(=O)N[C@@H](CCC(=O)O)C(=O)N[C@@H](Cc1ccc(O)cc1)C(=O)N[C@@H](CC(C)C)C(=O)N[C@H](C(=O)N[C@@H](CCC(=O)O)C(=O)NC(C)(C)C(=O)NCC(=O)N1CCC[C@H]1C(=O)N[C@@H](CO)C(=O)N[C@@H](CO)C(=O)NCC(=O)N[C@@H](C)C(=O)N1CCC[C@H]1C(=O)N1CCC[C@H]1C(=O)N1CCC[C@H]1C(=O)N[C@@H](CO)C(N)=O)[C@@H](C)CC
Human GLP-1 receptor
  Ki: 2.78 nM
Human glucagon receptor
  Ki: 371 nM
Human GIP receptor
  Ki: 0.0841 nM

## H[Aib]EGTFTSDYSI[αMeL]LDKK([Dab-AEEA-Dab-AEEA-C20 diacid])AQ[αMeK]AFIQYLLA[Aib]GPSSGAPKPS-NH2 [Example 18]
Human GLP-1 receptor
  Ki: 0.319 nM
Human glucagon receptor
  Ki: 50.1 nM
Human GIP receptor
  Ki: 0.0798 nM

## H[Aib]EGTFTSDYSI[αMeL]LDKK([Dab-AEEA-Dab-AEEA-C20 diacid])AQ[αMeK]AFIQYLLA[Aib]GPSSGAPPPS-NH2 [Example 19]
Human GLP-1 receptor
  Ki: 0.24 nM
Human glucagon receptor
  Ki: 60.5 nM
Human GIP receptor
  Ki: 0.0518 nM

B3: Example 12 (peptide)
peptide: Y[Aib]EGTFTSDYSILLDKIAQK([AEEA-AEEA-γGlu-C20 diacid])AFIEYLIEGGPSSGAPPPS-NH2
modifications: N-terminus assumed
SMILES: CC[C@H](C)[C@H](NC(=O)[C@H](CCCCN)NC(=O)[C@H](CC(=O)O)NC(=O)[C@H](CC(C)C)NC(=O)[C@H](CC(C)C)NC(=O)[C@@H](NC(=O)[C@H](CO)NC(=O)[C@H](Cc1ccc(O)cc1)NC(=O)[C@H](CC(=O)O)NC(=O)[C@H](CO)NC(=O)[C@@H](NC(=O)[C@H](Cc1ccccc1)NC(=O)[C@@H](NC(=O)CNC(=O)[C@H](CCC(=O)O)NC(=O)C(C)(C)NC(=O)[C@@H](N)Cc1ccc(O)cc1)[C@@H](C)O)[C@@H](C)O)[C@@H](C)CC)C(=O)N[C@@H](C)C(=O)N[C@@H](CCC(N)=O)C(=O)N[C@@H](CCCCNC(=O)COCCOCCNC(=O)COCCOCCNC(=O)CC[C@H](NC(=O)CCCCCCCCCCCCCCCCCCC(=O)O)C(=O)O)C(=O)N[C@@H](C)C(=O)N[C@@H](Cc1ccccc1)C(=O)N[C@H](C(=O)N[C@@H](CCC(=O)O)C(=O)N[C@@H](Cc1ccc(O)cc1)C(=O)N[C@@H](CC(C)C)C(=O)N[C@H](C(=O)N[C@@H](CCC(=O)O)C(=O)NCC(=O)NCC(=O)N1CCC[C@H]1C(=O)N[C@@H](CO)C(=O)N[C@@H](CO)C(=O)NCC(=O)N[C@@H](C)C(=O)N1CCC[C@H]1C(=O)N1CCC[C@H]1C(=O)N1CCC[C@H]1C(=O)N[C@@H](CO)C(N)=O)[C@@H](C)CC)[C@@H](C)CC
Human GLP-1 receptor
  Ki: 12.9 nM
Human glucagon receptor
  Ki: 684 nM
Human GIP receptor
  Ki: 0.167 nM

B4: Example 17 (peptide)
peptide: H[Aib]EGTFTSDYSILLDKIAQK([AEEA-AEEA-γGlu-C20 diacid])AFIEYLLE[Aib]GPSSG-NH2
modifications: N-terminus assumed
SMILES: CC[C@H](C)[C@H](NC(=O)[C@H](CCCCN)NC(=O)[C@H](CC(=O)O)NC(=O)[C@H](CC(C)C)NC(=O)[C@H](CC(C)C)NC(=O)[C@@H](NC(=O)[C@H](CO)NC(=O)[C@H](Cc1ccc(O)cc1)NC(=O)[C@H](CC(=O)O)NC(=O)[C@H](CO)NC(=O)[C@@H](NC(=O)[C@H](Cc1ccccc1)NC(=O)[C@@H](NC(=O)CNC(=O)[C@H](CCC(=O)O)NC(=O)C(C)(C)NC(=O)[C@@H](N)Cc1c[nH]cn1)[C@@H](C)O)[C@@H](C)O)[C@@H](C)CC)C(=O)N[C@@H](C)C(=O)N[C@@H](CCC(N)=O)C(=O)N[C@@H](CCCCNC(=O)COCCOCCNC(=O)COCCOCCNC(=O)CC[C@H](NC(=O)CCCCCCCCCCCCCCCCCCC(=O)O)C(=O)O)C(=O)N[C@@H](C)C(=O)N[C@@H](Cc1ccccc1)C(=O)N[C@H](C(=O)N[C@@H](CCC(=O)O)C(=O)N[C@@H](Cc1ccc(O)cc1)C(=O)N[C@@H](CC(C)C)C(=O)N[C@@H](CC(C)C)C(=O)N[C@@H](CCC(=O)O)C(=O)NC(C)(C)C(=O)NCC(=O)N1CCC[C@H]1C(=O)N[C@@H](CO)C(=O)N[C@@H](CO)C(=O)NCC(N)=O)[C@@H](C)CC
Human GLP-1 receptor
  Ki: 7.63 nM
Human glucagon receptor
  Ki: 261 nM
Human GIP receptor
  Ki: 0.606 nM

B5: Example 14 (peptide)
peptide: Y[Aib]EGTFTSDYSILLDKIAQK([AEEA-AEEA-γGlu-C20 diacid])EFIQYLLE[Aib]GPSSGAPPPS-NH2
modifications: N-terminus assumed
SMILES: CC[C@H](C)[C@H](NC(=O)[C@H](CCCCN)NC(=O)[C@H](CC(=O)O)NC(=O)[C@H](CC(C)C)NC(=O)[C@H](CC(C)C)NC(=O)[C@@H](NC(=O)[C@H](CO)NC(=O)[C@H](Cc1ccc(O)cc1)NC(=O)[C@H](CC(=O)O)NC(=O)[C@H](CO)NC(=O)[C@@H](NC(=O)[C@H](Cc1ccccc1)NC(=O)[C@@H](NC(=O)CNC(=O)[C@H](CCC(=O)O)NC(=O)C(C)(C)NC(=O)[C@@H](N)Cc1ccc(O)cc1)[C@@H](C)O)[C@@H](C)O)[C@@H](C)CC)C(=O)N[C@@H](C)C(=O)N[C@@H](CCC(N)=O)C(=O)N[C@@H](CCCCNC(=O)COCCOCCNC(=O)COCCOCCNC(=O)CC[C@H](NC(=O)CCCCCCCCCCCCCCCCCCC(=O)O)C(=O)O)C(=O)N[C@@H](CCC(=O)O)C(=O)N[C@@H](Cc1ccccc1)C(=O)N[C@H](C(=O)N[C@@H](CCC(N)=O)C(=O)N[C@@H](Cc1ccc(O)cc1)C(=O)N[C@@H](CC(C)C)C(=O)N[C@@H](CC(C)C)C(=O)N[C@@H](CCC(=O)O)C(=O)NC(C)(C)C(=O)NCC(=O)N1CCC[C@H]1C(=O)N[C@@H](CO)C(=O)N[C@@H](CO)C(=O)NCC(=O)N[C@@H](C)C(=O)N1CCC[C@H]1C(=O)N1CCC[C@H]1C(=O)N1CCC[C@H]1C(=O)N[C@@H](CO)C(N)=O)[C@@H](C)CC
Human GLP-1 receptor
  Ki: 29.6 nM
Human glucagon receptor
  Ki: 160 nM
Human GIP receptor
  Ki: 0.0494 nM
